Measured values reported in patent publication US20250057951A1, “DISCERNIBLE CELL SURFACE PROTEIN VARIANTS OF CD117 FOR USE IN CELL THERAPY” (UNIVERSITÄT BASEL, priority 2021, published 2025).
Positions count from the first letter of the chain named. In names and notes the source's numbering stands.

T1: Y259G (limits assumed)
T1 construct: not in the list MOLECULES; also called human CD117 D1-2-3 variant Y259G
T1 extracellular domains 1, 2 and 3: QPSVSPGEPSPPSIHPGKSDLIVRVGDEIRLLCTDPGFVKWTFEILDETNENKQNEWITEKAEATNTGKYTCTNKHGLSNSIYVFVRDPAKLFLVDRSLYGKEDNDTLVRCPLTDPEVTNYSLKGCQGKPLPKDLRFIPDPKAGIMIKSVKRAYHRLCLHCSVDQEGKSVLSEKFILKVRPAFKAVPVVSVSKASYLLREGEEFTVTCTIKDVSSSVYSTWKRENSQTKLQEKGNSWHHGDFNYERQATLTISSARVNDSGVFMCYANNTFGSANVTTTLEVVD

B1: Refmab #3 (antibody, V domains shown)
VH: EVQLVQSGAEVKKPGESLKISCKGSGYSFTNYWIGWVRQMPGKGLEWMAIINPRDSDTRYRPSFQGQVTISADKSISTAYLQWSSLKASDTAMYYCARHGRGYEGYEGAFDIWGQGTLVTVSS
VL: DIQMTQSPSSLSASVGDRVTITCRSSQGIRSDLGWYQQKPGKAPKLLIYDASNLETGVPSRFSGSGSGTDFTLTISSLQPEDFATYYCQQANGFPLTFGGGTKVEIK
B2: Refmab #3 Fab fragment (Fab, V domains shown)
VH: B1 VH
VL: B1 VL
B3: V120P (receptor)
extracellular domains 1, 2 and 3: T1 extracellular domains 1, 2 and 3 with V95P, G234Y
notes: not in the list MOLECULES; also called human CD117 D1-2-3 variant V120P
B4: S261V (receptor)
extracellular domains 1, 2 and 3: T1 extracellular domains 1, 2 and 3 with G234Y, S236V
notes: not in the list MOLECULES; also called human CD117 D1-2-3 variant S261V

Key:
human wild-type CD117 [1] = target: T2, human wild-type CD117 (human, UniProt P10721 26-976); test: flow cytometry, HEK-293T with wt CD117 vs vector alone, IgG at 0.063 µg/mL
T2 construct: also called wt CD117; KIT
Method: Binding of the antibodies to the transfected cells and the optimal assay conditions were evaluated in 384-well format. Detection of cellular expression was measured via high-throughput flow cytometry. Serial dilutions of each antibody were tested for immunoreactivity against cells expressing CD117 or vector alone. The optimal screening concentration for each antibody was determined based on the raw signal values and signal-to-background calculations. Each point represents the mean of four replicates.

CD117 D1-2-3 wt = target: T3, CD117 D1-2-3 wt (human, UniProt P10721 26-311, limits assumed); test: BLI (Octet) as in Example 7, CD117 as analyte; affinity class as drawn, classes defined by the key on the sheet
T3 construct: also called human CD117 wt containing only domains 1, 2 and 3; wild type CD117 (recombinant purified)

[2] = target: human CD117 D1-2-3 variant Y259A (human, UniProt P10721 26-311, limits assumed); test: BLI (Octet) as in Example 7, CD117 variant as analyte; affinity class as drawn, classes defined by the key on the sheet
Method: (§1) As an analyte, human CD117 wt and variants, containing only domains 1, 2 and 3 (CD117 D1-2-3), was titrated at 500 nM, 50 nM and 5 nM. […] Reference subtraction was performed against buffer only wells. AHC tips were regenerated using 10 mM Gly-HCl pH 1.7. Data were analyzed using the Octet Data Analysis software HT 12.0. Data were fitted (when possible) to a 1:1 binding model. Kinetic rates ka and ka were globally fitted. […] For this qualitative analysis, the binding level of the top analyte concentration at end of the association step was used.

S261V = target: B4; test: as above
Method: as §1

[3] = target: human CD117 D1-2-3 variant Y259E (human, UniProt P10721 26-311, limits assumed); test: as above
Method: as §1

[4] = target: human CD117 D1-2-3 variant Y259P (human, UniProt P10721 26-311, limits assumed); test: as above
Method: as §1

Y259G = target: T1, Y259G; test: as above
Method: as §1

[5] = target: T4, human CD117 D1-2-3 variant S261Q (human, UniProt P10721 26-311, limits assumed); test: BLI (Octet) as in Example 7, CD117 variant as analyte; affinity class as drawn
T4 construct: Recombinant purified

[6] = target: T5, human CD117 D1-2-3 variant S261E (human, UniProt P10721 26-311, limits assumed); test: as above
T5 construct: Recombinant purified

human wild-type CD117 [7] = target: T2, human wild-type CD117; test: flow cytometry, HEK-293T with wt CD117 vs vector alone, Fab at 0.50 µg/mL
Biotinylated Avitag-hSCF [8] = target: T6, Biotinylated Avitag-hSCF (human, UniProt P21583 26-190, limits assumed, biotinylated Avitag); test: BLI (Octet), steady state: biotinylated SCF on streptavidin biosensor, CD117 D1-2-3 variant as analyte; KD relative to WT
T6 construct: Bought reagent; also called hSCF (Acros Biosystems SCF-H82E1)
T6 sequence (P21583 26-190 limits assumed): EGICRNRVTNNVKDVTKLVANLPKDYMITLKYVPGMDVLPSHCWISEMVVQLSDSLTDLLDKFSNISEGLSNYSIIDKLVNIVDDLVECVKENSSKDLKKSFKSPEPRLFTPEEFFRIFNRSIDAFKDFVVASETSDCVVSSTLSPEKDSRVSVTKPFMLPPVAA
Method: (§2) Domains 4 and 5 were used as a negative, non-binding control.
(§3) Association was monitored for 300 s and dissociation for 600 s. […] Reference subtraction was performed against buffer only wells. Biosensors were not regenerated and a new set of SA biosensors was used for each analyte. Data were analyzed using the Octet Data Analysis software HT 12.0. Steady state data analysis was performed due to the fast on/off nature of the interaction.

[9] = Melting temperature of CD117 variants by differential scanning fluorimetry; assay type: physicochemical; settings: Sypro Orange, PBS, 25 to 95° C.
Method: Biophysical properties of the elected variants were tested. Aggregation of the elected CD117 variants was determined by preparative size exclusion chromatography. Yield of the elected CD117 variants was determined by dividing the amount of protein after purification by the production volume. Melting temperature was measured by differential scanning fluorimetry using Sypro Orange (Sigma, PN: S5692-50 ul) and an RT-PCR machine (C1000 Thermal Cycler, Biorad). The samples were measured at 0.25-1.0 mg/ml in PBS buffer in duplicates and Sypro Orange was added at a final concentration of 5×. […] The fluorescent increase was monitored as a function of temperature and the melting temperature was determined as the inflexion point of the sigmoidal curve and compared to wild-type CD117. Results are shown in FIGS. 4 (aggregation), 5 (yield) and 6 (melting temperature).

Refmab #3 = test: Octet: binding of CD117 variants to Refmab #3; settings: qualitative Octet analysis
Method: A more sophisticated analysis of binding to the elected variants was performed with antibody Refmab #1. Binding of Refmab #1 to wt and variants (analyte) was measured in an Octet system RED96e or R8 at 25° C. with shaking at 1,000 rpm using 1× kinetic buffer (Sartorius, PN: 18-1105). First, the elected variants were screened for their ability to bind Refmab #1 using three different concentrations of analytes. Antibody Refmab #1 was captured by Anti-Human Fc capture biosensor (AHC) (Sartorius, PN: 18-5060) for 300 s at 0.5 to 1 μg/mL. As an analyte, human CD117 wt and variants, containing only domains 1, 2 and 3 (CD117 D1-2-3), was titrated at 500 nM, 50 nM and 5 nM. Association and dissociation of the analyte to Refmab #1 was monitored for 300 s and 900 s, respectively. Reference subtraction was performed against buffer only wells. AHC tips were regenerated using 10 mM Gly-HCl pH 1.7. Data were analyzed using the Octet Data Analysis software HT 12.0. Data were fitted (when possible) to a 1:1 binding model. Kinetic rates ka and […] globally fitted. Binding level of the elected variants were compared to wild type and are shown as percent in FIG. 7. For this qualitative analysis, the binding level of the top analyte concentration at end of the association step was used.
A similar experiment to that in Example 7 was performed, but utilizing Refmab's #2 and #3.

Biotinylated Avitag-hSCF [10] = target: T6, Biotinylated Avitag-hSCF; test: BLI (Octet), steady state: biotinylated SCF on streptavidin biosensor, CD117 D1-2-3 variant as analyte
Method: as §2, §3

## B1
Human wild-type CD117 [1]
  Signal:Background: 8 ratio to background
CD117 D1-2-3 wt
  Kd: < 5 nM
[2]
  Kd: > 50 nM
S261V
  Kd: > 50 nM
[3]
  Kd: < 5 nM
[4]
  Kd: > 50 nM
Y259G
  Kd: > 50 nM
[5]
  binding result: no binding (tested: not shown on the sheet)
[6]
  binding result: no binding (tested: not shown on the sheet)

## B2
Human wild-type CD117 [7]
  Signal:Background: 6 ratio to background

## B3
Biotinylated Avitag-hSCF [8]
  binding result: binds
[9]
  melting temperature: two melting points were measured

## B4
Refmab #3
  binding to Refmab #3 compared to wild type CD117: strong decrease in binding
Biotinylated Avitag-hSCF [10]
  binding result: no binding (tested: 1000 nM (not on the sheet))
